Source: patent CN113667015A

Molecular target: T1, 人PSGL-1 (on THP-1 cells) (human) (UniProt Q14242)
T1 sequence (looked up): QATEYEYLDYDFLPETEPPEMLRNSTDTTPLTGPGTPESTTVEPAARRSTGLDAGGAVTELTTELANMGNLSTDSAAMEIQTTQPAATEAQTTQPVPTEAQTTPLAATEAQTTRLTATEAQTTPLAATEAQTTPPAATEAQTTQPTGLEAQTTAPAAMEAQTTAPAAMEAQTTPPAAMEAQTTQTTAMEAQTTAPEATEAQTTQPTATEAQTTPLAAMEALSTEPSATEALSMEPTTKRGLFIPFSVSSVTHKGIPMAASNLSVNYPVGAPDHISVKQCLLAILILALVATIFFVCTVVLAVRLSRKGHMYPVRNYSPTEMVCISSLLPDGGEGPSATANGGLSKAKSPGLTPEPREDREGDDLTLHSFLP
Experiment: flow cytometry competition on THP-1 cells; competitor recombinant human P-selectin/CD62P Fc chimera; antibody 10 μg/mL

B1: 抗体Rh001-6 (antibody, V domains shown)
VH: QVQLLESGPGLVKPSETLSLSCTVSGGSISGYYYWSWIRQPPGKGLEWIGGIYGTSGSAYYNPSLKSRVTISKDTSKNQFSLKLSSVTAADTAVYYCTRHASGGANTDLWGQGTLVTVSS
VL: DIQMTQSPLSLPVTPGQPASISCRSSQSLVHSDGKTYLNWLQQKPGQPPRRLIYQVSNRDSGVPDRFSGSGAGTDFTLKISRVEAEDVGVYYCGQGTNVPFTFGPGTKVEIK
- fold decrease of CD62P+CD45+/总CD45+细胞 at 10μg/mL: 2 倍

B2: 抗体Rh001-22 (antibody, V domains shown)
VH: QVQLLESGPGLVKPSETLSLTCAVSGGSLTSHYWGWIRQPPGKGLEWVGSISGSSGNPEYNPSLKSRATISRDTSENQFSLRVNSVTAADTAVYHCVRWQRLENYFDSWGQGTLVTVSS
VL: DIQMTQPPSVSGDPGQRVTISCTGSTSNIGTYYVSWYRQVPGTVPKLLIYENNKRPSGVSDRFSGSKSGTSASLTITGLQPGDEADYYCLAWDDGLSAGLFGGGTKVEIK
- fold decrease of CD62P+CD45+/总CD45+细胞 at 10μg/mL: 1.5 倍
